The values that follow come from US20060286035A1 (CYTOS BIOTECHNOLOGY, published 2006).

In assay [1] the target is T1, T-cadherin (mouse, UniProt Q9WTR5 139-693).
T1 construct: whole, on cells; also called adiponectin receptor; pGF-T-cadherin
T1 sequence (looked up): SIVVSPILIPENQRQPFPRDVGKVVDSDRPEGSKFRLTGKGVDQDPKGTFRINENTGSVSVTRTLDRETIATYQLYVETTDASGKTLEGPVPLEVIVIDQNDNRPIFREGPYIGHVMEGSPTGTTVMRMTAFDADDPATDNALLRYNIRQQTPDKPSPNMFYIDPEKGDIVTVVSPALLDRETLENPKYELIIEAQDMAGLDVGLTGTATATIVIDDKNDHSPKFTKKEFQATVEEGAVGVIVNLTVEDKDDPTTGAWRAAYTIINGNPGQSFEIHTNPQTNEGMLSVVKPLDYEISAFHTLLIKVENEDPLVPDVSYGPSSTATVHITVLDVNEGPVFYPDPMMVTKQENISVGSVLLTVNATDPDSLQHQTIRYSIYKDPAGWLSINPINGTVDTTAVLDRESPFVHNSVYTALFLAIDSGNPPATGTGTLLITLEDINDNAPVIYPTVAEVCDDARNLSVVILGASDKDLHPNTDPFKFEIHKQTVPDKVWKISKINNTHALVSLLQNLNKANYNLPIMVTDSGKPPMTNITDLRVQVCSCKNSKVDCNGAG
Nature of the assay: flow cytometry titration on 293-EBNA cells transfected with pGF-T-cadherin; normalised geometric mean fluorescence of the GFP positive population. The protocol: (§1) 293-EBNA cells were transfected with pGF-T-cadherin. After two days the cells were harvested and stained with decreasing amounts of Acrp30-FLAG-C (50, 25, 12.5, 6.3, 3.1, 1.6, 0.8, 0.4 and 0 μg/ml) as described in example 6. To evaluate the dissociation constant, the geometric mean fluorescence (GMFl) of the GFP positive population was determined using FACS Winmdi software. The GMFl was then normalized as follows: (GMFL of the sample minus GMFl of samples stained with secondary reagents only) divided by maximal GMFL. The protein concentration is shown on the X axis and the normalised GMFL is shown on the Y axis.
(§2) In order to determine the dissociation constant of the adiponectin-T-cadherin interaction, 293-EBNA cells were transfected with pGF-T-cadherin as described in example 6. […] The cells were then analysed by FACS using a FACS Calibur (Becton Dickinson). To determine the binding affinity, the geometric mean fluorescence of the GFP positive population was determined using FACS WINmdi software. The geometric mean fluorescence was then normalised by deducing the mean fluorescence of the sample which was stained with the secondary reagents only from the different samples and then all the values were divided by the maximal fluorescence. The normalised values for the mean fluorescence were than plotted against the concentration of Acrp30-FLAG-C. […]
For orientation: A flow cytometer gives signals particle by particle.

Assay [2] addresses T1, T-cadherin. Put plainly: flow cytometry titration on 293-EBNA cells transfected with pGF-T-cadherin; half-maximal concentration divided by the molecular weight. As to the method: as §1, §2

B1: Acrp30-FLAG-C (ligand)
chain: DADPEDDVTTTEELAPALVPPPKGTCAGWMAGIPGHPGHNGTPGRDGRDGTPGEKGEKGDAGLLGPKGETGDVGVTGAEGPRGFPGTPGRKGEPGEAAYMYRSAFSVGLETRVTVPNVPIRFTKIFYNQQNHYDGSTGKFYCNIPGLYYFSYHITVYMKDVKVSLFKKDKAVLFTYDQYQEKNVDQASGSVLLHLEVGDQVWLQVYGDGDHNGLYADNVNDSTFTGFLLYHDTNSLDDYKDDDDK
notes: The molecular weight used for the Kd is 26546 g/mol (monomer); Three bands on SDS-PAGE from differential glycosylation; also called Adiponectin-bait Acrp30-FLAG-C; adiponectin
With B1, the midpoint of the response with T-cadherin [1], the EC50, lay at 2.2 µg/mL. For the same molecule, binding with T-cadherin [2] was put at a Kd of 83 nM.
